Measured values: PMC8262983

Biological target: recombinant 6×His-HSP70 (P. falciparum)

B1: recombinant 6×His-HSP40 (natural protein)
chain: MFFSSGFPFDSMGGQQARRKREVNNNKFYEVLNLKKNCTTDEVKKAYRKLAIIHHPDKGGDPEKFKEISRAYEVLSDEEKRKLYDEYGEEGLENGEQPADATDLFDFILNAGKGKKKRGEDIVSEVKVTLEQLYNGATKKLAISKDIICTNCEGHGGPKDAKVDCKQCNGRGTKTYMRYHSSVLHQTEVTCNTCRGKGKIFNEKDKCANCKGMCVLKTRKIIEVYIPKGAPNKHKIVFNGEADEKPNVITGNLVVILNEKQHPVFRREGIDLFMNYKISLYESLTGFVAEVTHLDERKILVNCTNSGFIRHGDIREVLDEGMPTYKDPFKKGNLYITFEVEYPMDLIITNENKEVLKILKKQNEVEKKYDLENSELEVVSCSPVDKEYIKVRVTKQQQQQQQEAYDDEDHQPEMEGGRVACAQQ
For B1, the ATPase activity of HSP70 (EnzChek phosphate assay; 45 μg HSP70 with 8.9 μg HSP40 against HSP70 alone) was 3 fold.
